{
  "source": "IntAct's records for PubMed 11731480",
  "parents": {"B1": {"name": "Histone acetyltransferase SAS2 (Saccharomyces cerevisiae), P40963 (parent)", "chain": "MARSLSQSLTATTQKLKGKKNGGKGKNKPSAKIKKTQKEMLYGILNERNIRQIQFGLNKKFSTWYGSAVYFDPETKRLGCSETKGQLSSVSNSQYWLDTLFVCEYCFKYTDDQTRFVGHVASCPFQYRVPGKIKYKSPEYTIRRVKGSKYQLFCQCLCLFTKLYLDNKSMYFKVDHYEFYIVYETGSTKPMGFFSKDLVSYQQNNLACILIFPPYQRRGLGLLLIEFSYKLSQLEGVISGPEVPLSPFGLIGYLKYWSQILCWHLIEGDLAHYDKVTLEDLSIVTGMRVNDVILTLKHLNCIGENNQIYLQSLNSWLKLHGTKRNWFKLKDEYLLIDD", "partner": "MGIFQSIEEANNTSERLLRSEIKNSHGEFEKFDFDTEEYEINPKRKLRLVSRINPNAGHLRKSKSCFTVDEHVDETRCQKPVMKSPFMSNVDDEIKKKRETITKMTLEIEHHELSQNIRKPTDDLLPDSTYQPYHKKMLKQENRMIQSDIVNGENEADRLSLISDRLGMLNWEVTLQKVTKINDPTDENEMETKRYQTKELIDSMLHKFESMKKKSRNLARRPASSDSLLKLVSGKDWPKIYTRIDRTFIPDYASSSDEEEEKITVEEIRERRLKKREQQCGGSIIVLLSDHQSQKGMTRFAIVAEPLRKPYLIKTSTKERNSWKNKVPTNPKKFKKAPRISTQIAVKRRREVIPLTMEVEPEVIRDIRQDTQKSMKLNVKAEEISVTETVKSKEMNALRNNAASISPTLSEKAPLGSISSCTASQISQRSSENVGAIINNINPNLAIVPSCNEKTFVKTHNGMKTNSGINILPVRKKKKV"}, "B2": {"name": "Histone acetyltransferase SAS2 (Saccharomyces cerevisiae), P40963 (parent)", "chain": "B1 chain"}},
  "data": [
    {"variants_of": "B1", "details": "with sas4_yeast SAS4, Q04003", "values": [
      {"variant": "MARSLSQSLTATTQKLKGKKNGGKGKNKPSAKIKKTQKEMLYGILNERNIRQIQFGLNKKFSTWYGSAVYFDPETKRLGCSETKGQLSSVSNSQYWLDTLFVCEYLFKYTDDQTRFVGHVASCPFQYRVPGKIKYKSPEYTIRRVKGSKYQLFCQCLCLFTKLYLDNKSMYFKVDHYEFYIVYETGSTKPMGFFSKDLVSYQQNNLACILIFPPYQRRGLGLLLIEFSYKLSQLEGVISGPEVPLSPFGLIGYLKYWSQILCWHLIEGDLAHYDKVTLEDLSIVTGMRVNDVILTLKHLNCIGENNQIYLQSLNSWLKLHGTKRNWFKLKDEYLLIDD", "note": "[C106L]", "effect of a mutation on the interaction": "decreasing interaction"},
      {"variant": "MARSLSQSLTATTQKLKGKKNGGKGKNKPSAKIKKTQKEMLYGILNERNIRQIQFGLNKKFSTWYGSAVYFDPETKRLGCSETKGQLSSVSNSQYWLDTLFVCEYCFKYTDDQTRFVGHVASCPFQYRVPGKIKYKSPEYTIRRVKGSKYQLFCQCLCLFTKLYLDNKSMYFKVDHYEFYIVYETGSTKPMGFFSKDLVSYQQNNLACILIFAVYQRRGLGLLLIEFSYKLSQLEGVISGPEVPLSPFGLIGYLKYWSQILCWHLIEGDLAHYDKVTLEDLSIVTGMRVNDVILTLKHLNCIGENNQIYLQSLNSWLKLHGTKRNWFKLKDEYLLIDD", "note": "[P213A;P214V]", "effect of a mutation on the interaction": "decreasing interaction"}
    ]},
    {"variants_of": "B2", "details": "with caf1a_yeast RLF2, Q12495", "values": [
      {"variant": "MARSLSQSLTATTQKLKGKKNGGKGKNKPSAKIKKTQKEMLYGILNERNIRQIQFGLNKKFSTWYGSAVYFDPETKRLGCSETKGQLSSVSNSQYWLDTLFVCEYLFKYTDDQTRFVGHVASCPFQYRVPGKIKYKSPEYTIRRVKGSKYQLFCQCLCLFTKLYLDNKSMYFKVDHYEFYIVYETGSTKPMGFFSKDLVSYQQNNLACILIFPPYQRRGLGLLLIEFSYKLSQLEGVISGPEVPLSPFGLIGYLKYWSQILCWHLIEGDLAHYDKVTLEDLSIVTGMRVNDVILTLKHLNCIGENNQIYLQSLNSWLKLHGTKRNWFKLKDEYLLIDD", "note": "[C106L]", "effect of a mutation on the interaction": "decreasing interaction"},
      {"variant": "MARSLSQSLTATTQKLKGKKNGGKGKNKPSAKIKKTQKEMLYGILNERNIRQIQFGLNKKFSTWYGSAVYFDPETKRLGCSETKGQLSSVSNSQYWLDTLFVCEYCFKYTDDQTRFVGHVASCPFQYRVPGKIKYKSPEYTIRRVKGSKYQLFCQCLCLFTKLYLDNKSMYFKVDHYEFYIVYETGSTKPMGFFSKDLVSYQQNNLACILIFAVYQRRGLGLLLIEFSYKLSQLEGVISGPEVPLSPFGLIGYLKYWSQILCWHLIEGDLAHYDKVTLEDLSIVTGMRVNDVILTLKHLNCIGENNQIYLQSLNSWLKLHGTKRNWFKLKDEYLLIDD", "note": "[P213A;P214V]", "effect of a mutation on the interaction": "decreasing interaction"}
    ]}
  ]
}
